Assay [1] addresses DUF4297 from Bacillus ap. HMH5848 (Bacillus ap. HMH5848). Briefly: mass photometry.
Assay [2] has the same target. Briefly: cryo-EM structure.
Assay [3] deals with HerA from Bacillus ap. HMH5848 (Bacillus ap. HMH5848). Kind of assay: cryo-EM structure.

The term stoichiometry N denotes a count of units in the complex or per binding partner.

Where “and” joins values, the source holds several entries; their conditions need not be identical. Equal entries are not always repeated.

For the substance “DUF4297 from Bacillus ap. HMH5848 (enzyme)”, the stoichiometry N in assay [1] is 6 and 12 and 14; in assay [2] it was 12 and 4 and 6. As to HerA from Bacillus ap. HMH5848 (enzyme), in assay [3], the stoichiometry N worked out at 6.

These data come from publication PMC13189363.
